The record followed here is publication PMC7557104, “Population genetic and biophysical evidences reveal that purifying selection shapes the genetic landscape of Plasmodium falciparum RH ligands in Chhattisgarh and West Bengal, India” (Malaria Journal, 2020).

For experiment [1], the target named is T1, rPfRH5M, recombinant receptor binding fragment of PfRH5 encoded by the most prevalent haplotype rh5h1 (Y203) (Plasmodium falciparum, UniProt Q8IFM5 35-222, C203Y).
T1 construct: PfRH5, Plasmodium falciparum, field-isolate haplotype rh5h1, which differs from the Pf3D7 allele by C203Y; 188 aa, Glutamine-35 to Serine-222, amplified from DNA of an infected blood sample; Cloned BamHI/HindIII into pET-20b(+); also called PfRH5_(variant); Y203 allele; source: E. coli BL21 (DE3), purified (Ni-NTA)
T1 sequence (looked up): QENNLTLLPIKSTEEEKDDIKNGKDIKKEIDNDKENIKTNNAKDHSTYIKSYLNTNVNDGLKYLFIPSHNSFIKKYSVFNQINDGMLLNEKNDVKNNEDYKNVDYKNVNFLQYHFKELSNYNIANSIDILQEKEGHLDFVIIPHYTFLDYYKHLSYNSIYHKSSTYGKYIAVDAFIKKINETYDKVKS
Nature of the experiment: ITC; BSG injected drop by drop (1 min intervals) into the cell holding PfRH5_(3D7) or PfRH5M; BSG 10 times more concentrated than PfRH5; 25 °C; 0.1 M phosphate buffer, pH 7.0, Dulbecco PBS pH 7.4 in the reference cell (methods); PBS-BSG titration subtracted; fit to one set of binding sites. Particulars: both partners purified.

In experiment [2] the target is T2, rPfRH5_(3D7), recombinant receptor binding fragment of P. falciparum reticulocyte binding protein-like … (Plasmodium falciparum, UniProt Q8IFM5 35-222).
T2 construct: made by site-directed mutagenesis (Y203 to C) of the field-isolate clone rPfRH5M-pET-20b; Cloned BamHI/HindIII into pET-20b(+); also called C203 allele; source: E. coli BL21 (DE3), purified (Ni-NTA)
T2 sequence: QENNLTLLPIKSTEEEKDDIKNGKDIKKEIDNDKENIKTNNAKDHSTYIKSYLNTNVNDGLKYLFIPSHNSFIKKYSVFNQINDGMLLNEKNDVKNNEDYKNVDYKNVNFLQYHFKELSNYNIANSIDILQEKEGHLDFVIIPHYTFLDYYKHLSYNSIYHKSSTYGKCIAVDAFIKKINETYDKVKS
Described as above. Particulars: both partners purified.

B1: basigin (BSG) (receptor)
chain: AAGTVFTTVEDLGSKILLTCSLNDSATEVTGHRWLKGGVVLKEDALPGQKTEFKVDSDDQWGEYSCVFLPEPMGTANIQLHGPPRVKAVKSSEHINEGETAMLVCKSESVPPVTDWAWYKITDSEDKALMNGSESRFFVSSSQGRSELHIENLNMEADPGQYRCNGTSSKGSDQAIITLRVRSHLAAL
For the molecule B1, the values for the Ka in experiment [1] and in experiment [2] were 3.63e+06 M⁻¹ and 1.31e+06 M⁻¹, respectively.
